Measurements published in patent US20100028370A1 (RAPTOR PHARMACEUTICAL, published 2010).

Target: mLRP/LRPTmMegT mini-receptor (fourth ligand binding and transmembrane domains of LRP1 with the C-terminal … (UniProt Q07954 3293-4444))
Assay: cell-based or functional assay

Sequence of mLRP/LRPTmMegT mini-receptor (fourth ligand binding and transmembrane domains of LRP1 with the C-terminal … (Q07954 3293-4444): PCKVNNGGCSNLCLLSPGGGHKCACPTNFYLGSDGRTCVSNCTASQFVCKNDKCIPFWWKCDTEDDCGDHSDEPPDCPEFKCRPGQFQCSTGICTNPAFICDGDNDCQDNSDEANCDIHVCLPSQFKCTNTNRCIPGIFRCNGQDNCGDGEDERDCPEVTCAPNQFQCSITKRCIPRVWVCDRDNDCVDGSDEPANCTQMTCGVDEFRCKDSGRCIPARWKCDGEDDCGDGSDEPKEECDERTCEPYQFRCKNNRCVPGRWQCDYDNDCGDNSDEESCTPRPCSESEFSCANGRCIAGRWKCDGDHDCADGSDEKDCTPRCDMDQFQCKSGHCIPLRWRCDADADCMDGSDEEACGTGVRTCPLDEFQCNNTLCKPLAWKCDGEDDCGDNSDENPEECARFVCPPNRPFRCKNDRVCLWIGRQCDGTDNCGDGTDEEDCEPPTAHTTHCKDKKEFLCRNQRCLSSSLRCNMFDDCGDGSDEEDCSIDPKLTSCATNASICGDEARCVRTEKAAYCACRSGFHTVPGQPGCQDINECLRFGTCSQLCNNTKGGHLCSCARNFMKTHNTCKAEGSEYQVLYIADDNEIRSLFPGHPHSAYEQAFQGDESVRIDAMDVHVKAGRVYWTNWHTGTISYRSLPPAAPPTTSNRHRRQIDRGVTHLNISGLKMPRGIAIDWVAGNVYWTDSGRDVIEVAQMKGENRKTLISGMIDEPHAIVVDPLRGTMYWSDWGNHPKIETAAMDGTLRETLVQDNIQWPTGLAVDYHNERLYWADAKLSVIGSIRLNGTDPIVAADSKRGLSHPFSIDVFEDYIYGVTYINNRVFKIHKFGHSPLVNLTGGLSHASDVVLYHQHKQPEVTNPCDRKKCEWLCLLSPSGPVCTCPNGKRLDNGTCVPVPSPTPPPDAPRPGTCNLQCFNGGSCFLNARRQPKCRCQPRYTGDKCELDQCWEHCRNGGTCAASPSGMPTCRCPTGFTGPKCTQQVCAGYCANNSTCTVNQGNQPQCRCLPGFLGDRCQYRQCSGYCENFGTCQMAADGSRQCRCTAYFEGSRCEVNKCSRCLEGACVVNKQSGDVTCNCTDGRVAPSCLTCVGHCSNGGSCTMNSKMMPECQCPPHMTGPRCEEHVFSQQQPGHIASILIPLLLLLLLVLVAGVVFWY

B1: receptor-associated protein (RAP) (ligand)
chain: YSREKNQPKPSPKRESGEEFRMEKLNQLWEKAQRLHLPPVRLAELHADLKIQERDELAWKKLKLDGLDEDGEKEARLIRNLNVILAKYGLDGKKDARQVTSNSLSGTQEDGLDDPRLEKLWHKAKTSGKFSGEELDKLWREFLHHKEKVHEYNVLLETLSRTEEIHENVISPSDLSDIKGSVLHSRHTELKEKLRSINQGLDRLRRVSHQGYSTEAEFEEPRVIDLWDLAQSANLTDKELEAFREELKHFEAKIEKHNHYQKQLEIAHEKLRHAESVGDGERVSRSREKHALLEGRTKELGYTVKKHLQDLSGRISRARHNEL
ratio of the apical-to-basolateral to the basolateral-to-apical permeability coefficient of 125I-RAP in MEGt-transfected MDCK cells: 460 fold
